Test results from PMC9585074.

Molecular target: human myc-tagged essential myosin light chain (ELC) (human) (UniProt P08590)
Assay: co-IP; human myc-tagged ELC overexpressed in HEK293 cells, Myc-Trap magnetic beads, 1 mg lysate over night at 4 °C, immunoblot for endogenous kinases; basal or ionophore (ionomycin 1-5 µM, 4 mM CaCl2, 10 min) stimulation

Chain of UniProt P08590 (P08590 whole entry): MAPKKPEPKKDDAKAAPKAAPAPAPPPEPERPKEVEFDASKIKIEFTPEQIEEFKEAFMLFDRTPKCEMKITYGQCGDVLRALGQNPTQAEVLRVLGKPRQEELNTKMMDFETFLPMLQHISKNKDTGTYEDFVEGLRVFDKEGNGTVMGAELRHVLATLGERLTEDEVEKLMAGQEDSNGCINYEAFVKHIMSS

B1: NIMA-related kinase 9 (NEK9), human, endogenous in HEK293 cells (enzyme)
chain: MSVLGEYERHCDSINSDFGSESGGCGDSSPGPSASQGPRAGGGAAEQEELHYIPIRVLGRGAFGEATLYRRTEDDSLVVWKEVDLTRLSEKERRDALNEIVILALLQHDNIIAYYNHFMDNTTLLIELEYCNGGNLYDKILRQKDKLFEEEMVVWYLFQIVSAVSCIHKAGILHRDIKTLNIFLTKANLIKLGDYGLAKKLNSEYSMAETLVGTPYYMSPELCQGVKYNFKSDIWAVGCVIFELLTLKRTFDATNPLNLCVKIVQGIRAMEVDSSQYSLELIQMVHSCLDQDPEQRPTADELLDRPLLRKRRREMEEKVTLLNAPTKRPRSSTVTEAPIAVVTSRTSEVYVWGGGKSTPQKLDVIKSGCSARQVCAGNTHFAVVTVEKELYTWVNMQGGTKLHGQLGHGDKASYRQPKHVEKLQGKAIRQVSCGDDFTVCVTDEGQLYAFGSDYYGCMGVDKVAGPEVLEPMQLNFFLSNPVEQVSCGDNHVVVLTRNKEVYSWGCGEYGRLGLDSEEDYYTPQKVDVPKALIIVAVQCGCDGTFLLTQSGKVLACGLNEFNKLGLNQCMSGIINHEAYHEVPYTTSFTLAKQLSFYKIRTIAPGKTHTAAIDERGRLLTFGCNKCGQLGVGNYKKRLGINLLGGPLGGKQVIRVSCGDEFTIAATDDNHIFAWGNGGNGRLAMTPTERPHGSDICTSWPRPIFGSLHHVPDLSCRGWHTILIVEKVLNSKTIRSNSSGLSIGTVFQSSSPGGGGGGGGGEEEDSQQESETPDPSGGFRGTMEADRGMEGLISPTEAMGNSNGASSSCPGWLRKELENAEFIPMPDSPSPLSAAFSESEKDTLPYEELQGLKVASEAPLEHKPQVEASSPRLNPAVTCAGKGTPLTPPACACSSLQVEVERLQGLVLKCLAEQQKLQQENLQIFTQLQKLNKKLEGGQQVGMHSKGTQTAKEEMEMDPKPDLDSDSWCLLGTDSCRPSL
  averaged intensity of precipitated NEK9 normalized to actin of input, before doubling the ionophore concentration: 0.35
  averaged intensity of precipitated NEK9 normalized to actin of input, doubled ionophore concentration: 1.01
